Test results: article PMC3834829, “A signature motif mediating selective interactions of BCL11A with the NR2E/F subfamily of orphan nuclear receptors” (Nucleic Acids Research, 2013)
Changes are numbered by the printed parent chain. In names and notes the source's numbering stands.

T1: LexA-COUP-TFII-LBD-(144–414) (UniProt P24468 144-414)
T1 construct: the bait copy of the LBD in the dimer assay; same residues as m19; also called wild-type COUP-TFII LBD; full-length LBD; source: yeast two-hybrid fusion (S. cerevisiae L40)
T1 sequence (looked up): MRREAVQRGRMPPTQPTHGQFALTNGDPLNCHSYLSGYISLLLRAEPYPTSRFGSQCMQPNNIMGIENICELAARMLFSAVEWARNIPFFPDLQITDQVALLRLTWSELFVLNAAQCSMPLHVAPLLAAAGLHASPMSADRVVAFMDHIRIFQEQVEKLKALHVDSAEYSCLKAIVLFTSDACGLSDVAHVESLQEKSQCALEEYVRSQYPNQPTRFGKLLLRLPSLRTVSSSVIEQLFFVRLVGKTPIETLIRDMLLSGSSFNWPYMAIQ

B1: AAD-EAR2-LBD-(121–399) (domain or fragment)
chain: MRKEAVQRGRIPHSLPGAVAASSGSPPGSALAAVASGGDLFPGQPVSELIAQLLRAEPYPAAAGRFGAGGGAAGAVLGIDNVCELAARLLFSTVEWARHAPFFPELPVADQVALLRLSWSELFVLNAAQAALPLHTAPLLAAAGLHAAPMAAERAVAFMDQVRAFQEQVDKLGRLQVDSAEYGCLKAIALFTPDACGLSDPAHVESLQEKAQVALTEYVRAQYPSQPQRFGRLLLRLPALRAVPASLISQLFFMRLVGKTPIETLIRDMLLSGSTFNWP
B2: AAD-COUP-TFII-LBD-(144–414) (domain or fragment)
chain: T1 sequence (looked up)
B3: AAD-COUP-TFII-LBD V224A (domain or fragment, UniProt P24468 144-414, looked up)
chain: T1 sequence (looked up) with V81A
notes: expressed at a 2-fold lower level than the other constructs of the series; also called V224A mutant; source: yeast two-hybrid fusion (S. cerevisiae L40)

target: AAD-LRH-1-LBD-(133–495) (UniProt O00482); experiment: yeast two-hybrid; conditions: parent: est. 1100; read off a plot
Sequence (O00482 133-495): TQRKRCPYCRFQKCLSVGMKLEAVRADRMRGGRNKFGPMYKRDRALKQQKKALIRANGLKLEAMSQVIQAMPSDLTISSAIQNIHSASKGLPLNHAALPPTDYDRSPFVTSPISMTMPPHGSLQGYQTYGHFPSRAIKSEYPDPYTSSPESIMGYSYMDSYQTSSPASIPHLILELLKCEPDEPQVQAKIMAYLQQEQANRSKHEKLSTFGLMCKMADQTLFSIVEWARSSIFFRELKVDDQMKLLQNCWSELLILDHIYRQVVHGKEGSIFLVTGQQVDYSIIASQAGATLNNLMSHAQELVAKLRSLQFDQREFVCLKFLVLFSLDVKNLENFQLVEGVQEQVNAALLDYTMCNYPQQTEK

Molecule	response [nmol/mg/min]
LexA-NSD1-(790–818) D812A	660
LexA-NSD1-(790–818) F803A	310
LexA-NSD1-(790–818) K802A	1300
LexA-NSD1-(790–818) K811A	710
LexA-NSD1-(790–818) L806A	0
LexA-NSD1-(790–818) L807A	470
LexA-NSD1-(790–818) L810A	0
LexA-NSD1-(790–818) M808A	900
LexA-NSD1-(790–818) M809A	0
LexA-NSD1-(790–818) S804A	0
LexA-NSD1-(790–818) Y801A	690

target: LexA-BCL11A RID1 F315A (UniProt Q9H165); experiment: two-hybrid; S. cerevisiae L40; LexA DBD fusion with VP16 AAD-NR fusion; β-galactosidase activity in cell-free extracts; vehicle only or no ligand; conditions: not given

Molecule	fold lower reporter activation than wild-type RID1 [fold]
B1	2

target: LexA-BCL11A RID1 R317A (UniProt Q9H165); experiment: as above; conditions: not given

Molecule	fold lower reporter activity than wild-type RID1 [fold]
B2	5

target: LexA-BCL11A RID1 R320A (UniProt Q9H165); experiment: as above; conditions: not given

Molecule	fold lower reporter activity than wild-type RID1 [fold]
B2	5

target: T1, LexA-COUP-TFII-LBD-(144–414); experiment: as above; conditions: partners not purified

Molecule	fold reduction of reporter activation due to homodimer formation [fold]
B3	~2.5
